Positions count from the first letter of the chain named.
T1: ^NDD9 Val (N-terminal docking domain of stambomycin PKS subunit Pks9, version with the Val start site) (Streptomyces ambofaciens ATCC23877)
T1 chain: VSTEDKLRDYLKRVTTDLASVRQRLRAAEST

T2: ^NDD9 Met (N-terminal docking domain of stambomycin PKS subunit Pks9, version with the Met start site) (Streptomyces ambofaciens ATCC23877)
T2 chain: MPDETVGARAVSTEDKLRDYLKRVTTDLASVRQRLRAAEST

T3: ^NDD5 (N-terminal docking domain of stambomycin PKS subunit Pks5) (Streptomyces ambofaciens ATCC23877)
T3 chain: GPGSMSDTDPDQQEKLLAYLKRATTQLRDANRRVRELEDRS

B1: ^CDD8 (C-terminal docking domain of stambomycin PKS subunit Pks8) (domain or fragment)
chain: GPGSYGPAALLADLDRLDAALAGTGPGDETRSRVISRLHALLARHDTADGSGLVTAAGNLDAADDDNLFAFIDNELGA
B2: ^CDD4 wt (C-terminal docking domain of stambomycin PKS subunit Pks4) (domain or fragment)
chain: GPGSYADRLLAELARLEADLTRMDGDEEDRTRLAARLRALADRCQGERTRRDDNLDAASIEEVFDLLDTEFETP
B3: ^CDD4 SDM (C-terminal docking domain of Pks4 with 3 specificity-code residues mutated to match ^CDD8) (domain or fragment)
chain: B2 chain with E61D, L67I, F71L
B4: ^CDD4 helix swap (C-terminal docking domain of Pks4 with its docking α-helix exchanged for that of ^CDD8) (domain or fragment)
chain: GPGSYADRLLAELARLEADLTRMDGDEEDRTRLAARLRALADRCQGERTRRDDNLDAADDDNLFAFIDNELGA

How the values were obtained:
[1] = target: T1, ^NDD9 Val (N-terminal docking domain of …); test: ITC; ^CDD (700 μM) in the syringe titrated into the ^NDD in the cell (^NDD5 70 μM; ^NDD9 Met 80 μM; ^NDD9 Val 120 μM); 20 °C; buffer GF (20 mM HEPES, 100 mM NaCl, 0.5 mM TCEP, pH 7.5); one-site binding model; two independent titrations; settings: both partners purified
[2] = target: T2, ^NDD9 Met (N-terminal docking domain of …); test: as above; settings: both partners purified
[3] = target: the molecule itself; test: SEC-MALS; Superdex75 10/300, 20 °C, 0.5 mL min^-1, 20 mM HEPES, 100 mM NaCl, 0.5 mM TCEP, pH 7.5; each docking domain alone
[4] = target: T3, ^NDD5 (N-terminal docking domain of …); test: ITC; ^CDD (700 μM) in the syringe titrated into the ^NDD in the cell (^NDD5 70 μM; ^NDD9 Met 80 μM; ^NDD9 Val 120 μM); 20 °C; buffer GF (20 mM HEPES, 100 mM NaCl, 0.5 mM TCEP, pH 7.5); one-site binding model; two independent titrations; settings: both partners purified

Binder | Kd [1] [µM] | stoichiometry N [1] | Kd [2] [µM] | stoichiometry N [2] | stoichiometry N [3] | Kd [4] [µM] | stoichiometry N [4]
B1 | 22 ± 1 | 2 monomeric ^NDDs per homodimeric ^CDD | 33 ± 2 | 2 monomeric ^NDDs per homodimeric ^CDD | 2 | – | –
B2 | – | – | – | – | 2 | 14.5 ± 0.9 | 2 monomeric ^NDDs per homodimeric ^CDD
B3 | – | – | – | – | 2 | – | –
B4 | 21 ± 0.3 | – | – | – | 2 | – | –

Source: paper PMC8792006, “Engineering the stambomycin modular polyketide synthase yields 37-membered mini-stambomycins” (Nature Communications, 2022)
